The values below come from patent US20230192846A1 (University of California, published 2023).

Test [1] addresses T1, recombinant human ROR2-extracellular domain (ROR2-ECD) (human, UniProt Q01974 34-403).
T1 construct: also called recombinant ROR2-extracellular protein; recombinant ROR2 protein
Briefly: KinExA 3200 kinetic exclusion assay; free scFv captured on particles coated with recombinant ROR2 protein, soluble ROR2 as titrant. On the procedure:
FIGS. 12A and 12B. Affinity measurement and binding specificity of the 6E6 single chain variable fragment (scFv) for human ROR2. Analysis was performed using a KinExA 3200 instrument. (FIG. 12A) The proportion of the 6E6 anti-human ROR2 scFv bound to particles coated with recombinant ROR2 protein (y-axis) in the presence of increasing molar (M) concentration of soluble ROR2 competitor (x-axis) is shown. (FIG. 12B) Illustration of the 95% confidence interval for the measured Kd of 6E6 scFv for binding to recombinant human ROR2. (FIG. 12C) Binding of the 6E6 scFv to ROR2 was assessed by flow cytometric staining and analysis of K562 (ROR2 positive) and JEKO (ROR2 negative) cells. Cells were stained on ice for 20 minutes with ~1 ug/ml of 6E6 anti-human ROR2 scfv, washed, stained for an additional 20 minutes on ice with phycoerythrin (PE)-conjugated anti-human IgG1 antibody, washed and analyzed by flow cytometry. Shaded histograms depict the relative fluorescence intensity (x axis) of viable cells, as determined by light scatter characteristics, stained with 6E6 scfv compared to viable cells stained with the anti-human IgG1-PE antibody only (open histograms).

For test [2], the target named is T1, recombinant human ROR2-extracellular …. Briefly: kinetic exclusion assay (KinExA), soluble recombinant ROR2. On the procedure:
(§1) FIGS. 4A and 4B. Affinity measurement of binding of the 6E6 and 4G9 mAb to recombinant ROR2 protein. (FIG. 4A) Analysis was performed using a KinExA 3200 instrument. The proportion of anti-human ROR2 mAb bound to particles coated with ROR2 protein (y-axis) in the presence of increasing molar (M) concentration of soluble ROR2 competitor (x-axis) is shown for 6E6 (upper panel) and 4G9 (lower panel). (FIG. 4B) Illustration of the 95% confidence interval for the measured Kd of 6E6 (upper panel) and 4G9 (lower panel) for binding to human ROR2.
(§2) Applicants assessed binding specificity and relative affinities of each mAb using recombinant ROR2-extracellular protein in an ELISA assay, in which binding was measured using decreasing/limiting amounts of ROR2 protein and assessed in combination with decreasing concentrations of each of the four mAb (FIG. 3). Higher absorbance values for 6E6 and 4G9 at both lower ROR2 protein amounts and lower concentrations of mAb, indicate these mAb have higher affinities compared to 5C11 and 5G3. Equilibrium dissociation constants (Kd) were measured in a kinetic exclusion assay (KinExA) that measures the equilibrium binding affinity and kinetics between unmodified molecules in solution.
In general terms: In KinExA the mixture passes briefly over coated beads that capture the unbound partner.

For test [3] the target is unchanged. Described as above. On the procedure:
as §1, §2
The source holds these as a separate data set.

The target of test [4] is T2, h1-111 aa (human;mouse, UniProt Q01974;Q9Z138).
T2 construct: N-terminal part of the extracellular portion;C-terminal part of the extracellular portion; A tag is not described, but the blot was also probed with an anti-his tag mAb
T2 sequence (Q01974 other isoform, or with tags, fused parts or gaps limits assumed): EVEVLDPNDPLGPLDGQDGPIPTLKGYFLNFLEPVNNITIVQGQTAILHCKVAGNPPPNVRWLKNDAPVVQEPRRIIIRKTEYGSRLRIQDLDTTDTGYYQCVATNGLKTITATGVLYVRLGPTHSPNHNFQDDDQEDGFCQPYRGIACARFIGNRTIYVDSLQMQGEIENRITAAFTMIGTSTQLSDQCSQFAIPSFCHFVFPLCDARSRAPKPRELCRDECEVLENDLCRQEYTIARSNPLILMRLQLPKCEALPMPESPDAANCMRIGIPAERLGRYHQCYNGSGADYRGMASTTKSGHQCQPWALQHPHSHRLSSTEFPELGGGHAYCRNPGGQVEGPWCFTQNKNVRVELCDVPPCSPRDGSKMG
In words: dot blot; recombinant protein on nylon membrane, probed with the mAb, HRP anti-mouse IgG. The text has this:
(§3) FIG. 5. Identification of the binding regions of anti-human ROR2 mAb by assessment of binding to chimeric […] recombinant ROR2 protein. […] Each recombinant protein was transferred onto nylon membrane, probed with the 6E6, 4G9, 5C11, 5G3 or anti-his tag mAb, and detected with an anti-mouse IgG antibody conjugated with horse radish peroxidase, as shown in the right panel. The […] and 5C11 mAbs bind to ROR2 recombinant proteins that contain the human kringle domain.
(§4) Applicants developed a series recombinant human/mouse hybrid proteins that isolate specific domains of the human ROR2 protein. These recombinant proteins were used to identify the specific binding domains that each of the four mAb target (FIG. 5). The 6E6 and 5C11 mAb bind to the Kringle domain of human, but not mouse, ROR2. […] None of the four mAb bind mouse ROR2.

The target in test [5] is T3, h1-160 aa (human;mouse, UniProt Q01974;Q9Z138).
T3 construct: N-terminal part of the extracellular portion;C-terminal part of the extracellular portion; also called chimeric human/mouse recombinant ROR2 extracellular construct with the first 160 amino acids of human ROR2
T3 sequence (Q01974 other isoform, or with tags, fused parts or gaps limits assumed): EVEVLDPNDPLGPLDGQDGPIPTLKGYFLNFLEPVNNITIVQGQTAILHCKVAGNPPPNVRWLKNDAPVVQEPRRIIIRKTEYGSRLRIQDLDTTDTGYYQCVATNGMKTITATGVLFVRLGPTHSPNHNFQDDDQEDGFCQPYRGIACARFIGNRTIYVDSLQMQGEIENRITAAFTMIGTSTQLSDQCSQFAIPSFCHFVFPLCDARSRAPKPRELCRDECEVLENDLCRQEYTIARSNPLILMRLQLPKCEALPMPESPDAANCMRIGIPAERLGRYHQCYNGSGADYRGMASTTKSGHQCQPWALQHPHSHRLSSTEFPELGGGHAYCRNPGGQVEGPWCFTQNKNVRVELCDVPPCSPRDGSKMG
The description is as above.
Text: as §3, §4

Test [6] addresses T4, hCRD (mouse;human, UniProt Q9Z138;Q01974).
T4 construct: N-terminal part of the extracellular portion;cysteine rich domain (CRD);C-terminal part of the extracellular portion; also called chimeric human/mouse recombinant ROR2 extracellular construct that contains the cysteine rich domain of human ROR2
The test is described as above.
Text: as §3, §4

Test [7] has as its target T5, mouse ROR2 (recombinant extracellular portion) (mouse, UniProt Q9Z138 34-403). The test is described as above.
Text: as §3, §4

Test [8] deals with T6, recombinant human ROR2 with histidine 349 replaced by the arginine of mouse ROR2 (human, UniProt Q01974 34-403).
T6 construct: also called human ROR2 H349R
T6 sequence (Q01974 34-403 H349R limits assumed): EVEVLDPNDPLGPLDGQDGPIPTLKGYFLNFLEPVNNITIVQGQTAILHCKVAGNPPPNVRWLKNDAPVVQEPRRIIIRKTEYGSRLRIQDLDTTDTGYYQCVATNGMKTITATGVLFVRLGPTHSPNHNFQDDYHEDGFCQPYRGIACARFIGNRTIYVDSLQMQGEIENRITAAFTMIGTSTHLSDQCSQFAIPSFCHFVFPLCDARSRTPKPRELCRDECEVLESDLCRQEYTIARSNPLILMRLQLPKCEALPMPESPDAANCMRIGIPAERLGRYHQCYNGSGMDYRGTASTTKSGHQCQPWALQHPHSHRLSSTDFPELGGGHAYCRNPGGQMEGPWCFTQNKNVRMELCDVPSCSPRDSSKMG
The description is as above.

Test [9] has as its target T7, recombinant human ROR2 with aspartic acid 354 replaced by the glutamic acid of mouse ROR2 (human, UniProt Q01974 34-403).
T7 construct: also called human ROR2 D354E
The description is as above.

For test [10], the target named is T1, recombinant human ROR2-extracellular …. Briefly: KinExA 3200 kinetic exclusion assay; free mAb captured on particles coated with ROR2 protein, soluble ROR2 as titrant. The method, then:
as §1, §2

Test [11] deals with T8, recombinant human ROR2 with methionine 386 replaced by the valine of mouse ROR2 (human, UniProt Q01974 34-403).
T8 construct: also called human ROR2 M386V
T8 sequence (Q01974 other isoform, or with tags, fused parts or gaps limits assumed): as the sequence (Q01974 34-403 H349R limits assumed) above, with R316H, M353V counted along it
In words: dot blot; recombinant protein on nylon membrane, probed with the mAb, HRP anti-mouse IgG.

For test [12], the target named is T5, mouse ROR2 (recombinant extracellular …). The test is described as above. The source holds these as a separate data set.
Test [13] concerns the target T1, recombinant human ROR2-extracellular …. In words: ELISA. For orientation: ELISA stands for enzyme-linked immunosorbent assay.
In test [14] the target is T9, human ROR2 expressed on cells (human, UniProt Q01974 34-943).
T9 construct: Full-length human ROR2 entry; endogenous on cell lines and PDX cells, transfected in MCF7-ROR2; also called ROR2 surface antigen; human ROR2 on K562, BR1936 PDX, MCF7-ROR2 and other ROR2-expressing cell lines
T9 sequence (Q01974 34-943 limits assumed): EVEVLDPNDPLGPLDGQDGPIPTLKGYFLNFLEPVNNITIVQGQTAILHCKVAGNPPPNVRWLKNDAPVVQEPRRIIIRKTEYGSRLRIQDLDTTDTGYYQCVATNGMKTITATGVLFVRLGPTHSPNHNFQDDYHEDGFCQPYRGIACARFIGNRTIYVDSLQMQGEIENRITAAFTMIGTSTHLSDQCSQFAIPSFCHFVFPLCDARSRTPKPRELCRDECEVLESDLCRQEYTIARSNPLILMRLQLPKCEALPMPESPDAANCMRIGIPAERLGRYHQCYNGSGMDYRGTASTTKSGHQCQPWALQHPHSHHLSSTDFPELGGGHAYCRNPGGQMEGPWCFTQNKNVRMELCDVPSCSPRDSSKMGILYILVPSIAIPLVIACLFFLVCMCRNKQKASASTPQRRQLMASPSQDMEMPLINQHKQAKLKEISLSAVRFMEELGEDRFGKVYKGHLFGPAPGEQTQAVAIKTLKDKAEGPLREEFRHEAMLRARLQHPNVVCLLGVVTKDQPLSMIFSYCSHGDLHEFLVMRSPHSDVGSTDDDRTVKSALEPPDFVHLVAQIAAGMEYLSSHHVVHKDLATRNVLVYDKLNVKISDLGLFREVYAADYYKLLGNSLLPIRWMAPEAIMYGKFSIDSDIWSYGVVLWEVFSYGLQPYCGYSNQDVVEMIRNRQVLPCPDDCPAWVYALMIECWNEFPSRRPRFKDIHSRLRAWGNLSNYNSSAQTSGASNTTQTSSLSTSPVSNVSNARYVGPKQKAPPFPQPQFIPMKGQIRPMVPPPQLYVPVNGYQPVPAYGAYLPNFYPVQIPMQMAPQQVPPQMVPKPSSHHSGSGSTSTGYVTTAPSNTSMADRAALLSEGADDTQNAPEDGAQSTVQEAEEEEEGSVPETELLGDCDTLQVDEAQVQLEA
Briefly: flow cytometry on ROR2-expressing cells. Background: Flow cytometry measures light scatter and fluorescence of single cells or particles in a stream.

In test [15] the target is T10, hKringle (mouse;human, UniProt Q9Z138;Q01974).
T10 construct: N-terminal part of the extracellular portion;C-terminal part of the extracellular portion with the Kringle domain; also called chimeric human/mouse recombinant ROR2 extracellular construct that contains the Kringle domain of human ROR2
T10 sequence (Q9Z138 other isoform, or with tags, fused parts or gaps limits assumed): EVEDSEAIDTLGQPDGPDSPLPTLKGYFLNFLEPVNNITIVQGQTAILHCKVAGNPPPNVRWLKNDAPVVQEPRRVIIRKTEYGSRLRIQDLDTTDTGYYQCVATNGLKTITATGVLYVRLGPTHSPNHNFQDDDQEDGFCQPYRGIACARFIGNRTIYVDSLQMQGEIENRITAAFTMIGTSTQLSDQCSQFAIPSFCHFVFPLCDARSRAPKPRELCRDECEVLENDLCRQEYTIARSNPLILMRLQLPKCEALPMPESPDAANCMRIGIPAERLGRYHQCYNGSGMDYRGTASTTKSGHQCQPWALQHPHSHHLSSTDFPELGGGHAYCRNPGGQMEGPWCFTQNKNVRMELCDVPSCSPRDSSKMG
In words: dot blot; recombinant protein on nylon membrane, probed with the mAb, HRP anti-mouse IgG.
Text: as §3, §4

Test [16] has as its target T10, hKringle. Described as above. This is another data set of the same source.

Like-named read-outs stand apart in the source and are kept apart here.

T1 sequence (Q01974 34-403 limits assumed): as the sequence (Q01974 34-403 H349R limits assumed) above, with R316H counted along it
T4 sequence (Q9Z138 other isoform, or with tags, fused parts or gaps limits assumed): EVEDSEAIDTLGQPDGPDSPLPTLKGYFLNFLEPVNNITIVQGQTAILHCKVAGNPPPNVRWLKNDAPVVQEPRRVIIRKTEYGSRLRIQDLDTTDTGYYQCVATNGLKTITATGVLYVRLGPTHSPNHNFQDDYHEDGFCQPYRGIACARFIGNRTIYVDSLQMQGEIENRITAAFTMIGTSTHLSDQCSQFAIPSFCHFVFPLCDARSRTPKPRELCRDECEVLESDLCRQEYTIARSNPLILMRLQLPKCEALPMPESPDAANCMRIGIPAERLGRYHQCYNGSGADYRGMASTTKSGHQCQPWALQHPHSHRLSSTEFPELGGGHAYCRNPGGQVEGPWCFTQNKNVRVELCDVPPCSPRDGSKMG
T5 sequence (Q9Z138 other isoform, or with tags, fused parts or gaps limits assumed): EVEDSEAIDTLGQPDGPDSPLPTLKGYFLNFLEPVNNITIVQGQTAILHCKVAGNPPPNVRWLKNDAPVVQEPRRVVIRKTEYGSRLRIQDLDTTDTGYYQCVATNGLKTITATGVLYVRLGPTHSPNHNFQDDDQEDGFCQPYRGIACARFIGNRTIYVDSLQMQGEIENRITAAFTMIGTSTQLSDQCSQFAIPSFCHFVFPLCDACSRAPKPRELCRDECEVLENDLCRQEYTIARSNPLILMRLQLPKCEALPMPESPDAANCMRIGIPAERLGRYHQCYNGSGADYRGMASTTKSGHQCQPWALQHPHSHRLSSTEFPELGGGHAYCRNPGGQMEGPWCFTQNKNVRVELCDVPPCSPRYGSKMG
T7 sequence (Q01974 34-403 D354E limits assumed): as the sequence (Q01974 34-403 H349R limits assumed) above, with R316H, D321E counted along it

B1: 6E6 single chain variable fragment (scFv) (scFv)
scFv: DIVMTQSHKFMSTSIGDRVSITCKASQDVGHYVAWYQQKPGQSPKLLIYWASTRHTGVPDRFTGSGSGTDFTLTISNVQSEDLADYFCQQYNIYPWTFGGGSKLAIKGSTSGSGKPGSGEGSTKGEVQLVESGGDLVKPGGSLKLSCAASGFTFSNYGMSWVRQTPDKRLEWVATISSGGGYTHYVDSVKGRFTISRDNANHILYLQMSSLNSEDTAMYYCARHPRDFSYAMDYWGQGTSVTVSSEFLFPPKPKDTLMISRTPEVTCVVVDVSHEDPEVKFNWYVDGVEVHNAKTKPREEQYNSTYRVVSVLTVLHQDWLNGKEYKCKVSNKALPAPIEKTISKAKGQPREPQVYTLPPSREEMTKNQVSLTCLVKGFYPSDIAVEWESNGQPENNYKTTPPVLDSDGSFFLYSKLTVDESRWQQGNVFSCSVMHEALHNHYTQKSLSLSPGK
notes: scFv fused to CH2-CH3 of human IgG1; the leader is left out here; also called 6E6 scFv; 6E6 anti-human ROR2 scFv
For the molecule B1, the dissociation constant (Kd) (commonly the free concentration of one partner at which half of the binding sites on the other are occupied at equilibrium, for simple one-to-one binding) in test [1] stood at 0.0737 nM.

B2: 6E6 anti-human ROR2 monoclonal antibody (antibody, IgG1, V domains shown)
VH: EVQLVESGGDLVKPGGSLKLSCAASGFTFSNYGMSWVRQTPDKRLEWVATISSGGGYTHYVDSVKGRFTISRDNANHILYLQMSSLNSEDTAMYYCARHPRDFSYAMDYWGQGTSVTVSS
VL: DIVMTQSHKFMSTSIGDRVSITCKASQDVGHYVAWYQQKPGQSPKLLIYWASTRHTGVPDRFTGSGSGTDFTLTISNVQSEDLADYFCQQYNIYPWTFGGGSKLAIK
notes: Used conjugated with Alexa647 in flow cytometry and with pHrodo in the internalisation assay; also called 6E6 mAb
Regarding B2, the Kd in test [2] is around 0.1 nM; in [3], below 0.1 nM; in test [10], 0.0556 nM. The binding result in test [4], in [5], in [6], in test [7], in test [8] and in test [9] was “no binding” throughout.

B3: 5C11 anti-human ROR2 monoclonal antibody (antibody, IgG1, V domains shown)
VH: EVQLVESGGDLVKPGGSLKLSCAASGFTFSNYGMSWVRQTPDKRLEWVATISSGGGSTYYPDSVKGRFTISRDNAKNSLYLQMSSLKSEDTAMYYCARHPYDYGYYFDYWGQGTTLTVSS
VL: DILLTQSPDILSVSPGERVSFSCRASQSIGTSIHWYQQRTNGSPRLLIKYASESISGIPSRFSGSGSGTDFTLSINSVESEDIADYYCQQSDSWPFPFGSGTKLEKK
notes: also called 5C11 mAb
In the case of B3, in test [3], the Kd was above 40 nM. Besides, the binding result in [4], in test [5], in test [6], in [11], in [12] and in test [8] was “no binding” in each case. Moreover, the binding result in test [9] is listed as “no binding”.

B4: 4G9 single chain variable fragment (scFv) (scFv)
scFv: DIVMTQAAPSVPVTPGESVSISCRSSKSLLHSNGNTYLYWFLQRPGQSPQLLIYRMSNLASGVPDRFSGSGSGTAFTLRISRVEAEDVGVYYCMQHLEYPLTVGAGTKLELKGSTSGSGKPGSGEGSTKGQVQLQQSGAELVRPGASVKLSCKALGYTFTDYEMHWVKQTPVHGLEWIGAIHPGSGGTAYNQKFKGKATLTADKSSSTAYMELSRLTSEDSAVYYCTRRRPRFYGMDYWGQGTSVTVSSEFLFPPKPKDTLMISRTPEVTCVVVDVSHEDPEVKFNWYVDGVEVHNAKTKPREEQYNSTYRVVSVLTVLHQDWLNGKEYKCKVSNKALPAPIEKTISKAKGQPREPQVYTLPPSREEMTKNQVSLTCLVKGFYPSDIAVEWESNGQPENNYKTTPPVLDSDGSFFLYSKLTVDESRWQQGNVFSCSVMHEALHNHYTQKSLSLSPGK
notes: scFv fused to CH2-CH3 of human IgG1; the leader is left out here; also called 4G9 scFv
As for B4, the binding result in [13] and in [14] was “binds” each time.

B5: 5G3 anti-human ROR2 monoclonal antibody (antibody, IgG2a, V domains shown)
VH: EVQLVESGGGLVQPKGSLKLSCAASGFTFNTYAMNWVRQAPGKGLEWVARIRSKSNNYATYYADSVKDRFTISRDDSQSMLHLQMNNLKTEDTAMYYCVRHGSSLYYAMDYWGQGTSVTVSS
VL: DIQMTQSPSSLSASLGERVSLTCRASQEISGYLGWLQQKPDGTIKRLIYAASTLDSGVPKRFSGSRSGSAYSLTISSLESEDFADYYCLQYASYPYTFGGGTKLEIK
notes: also called 5G3 mAb
On to B5, for which, in test [3], the equilibrium dissociation constant (Kd) is above 40 nM. The binding result in [6], in test [15] and in test [7] was “no binding” each time.

B6: 4G9 anti-human ROR2 monoclonal antibody (antibody, IgG2a, V domains shown)
VH: QVQLQQSGAELVRPGASVKLSCKALGYTFTDYEMHWVKQTPVHGLEWIGAIHPGSGGTAYNQKFKGKATLTADKSSSTAYMELSRLTSEDSAVYYCTRRRPRFYGMDYWGQGTSVTVSS
VL: DIVMTQAAPSVPVTPGESVSISCRSSKSLLHSNGNTYLYWFLQRPGQSPQLLIYRMSNLASGVPDRFSGSGSGTAFTLRISRVEAEDVGVYYCMQHLEYPLTVGAGTKLELK
notes: Used conjugated with Alexa647 in flow cytometry and with pHrodo in the internalisation assay; also called 4G9 mAb
With B6, the Kd in test [2] was around 2 nM; in [3], around 1.9 nM; in test [10] it was 1.9 nM. The binding result in test [6], in test [16] and in test [12] was “no binding” throughout.
